Data as given in paper PMC10783527.

Key:
[1] = biological target: BCL11B213-560 (UniProt Q9C0K0 213-560); experiment: EMSA
[2] = biological target: T1, NTHL1 (UniProt P78549 1-304); experiment: EMSA
T1 sequence: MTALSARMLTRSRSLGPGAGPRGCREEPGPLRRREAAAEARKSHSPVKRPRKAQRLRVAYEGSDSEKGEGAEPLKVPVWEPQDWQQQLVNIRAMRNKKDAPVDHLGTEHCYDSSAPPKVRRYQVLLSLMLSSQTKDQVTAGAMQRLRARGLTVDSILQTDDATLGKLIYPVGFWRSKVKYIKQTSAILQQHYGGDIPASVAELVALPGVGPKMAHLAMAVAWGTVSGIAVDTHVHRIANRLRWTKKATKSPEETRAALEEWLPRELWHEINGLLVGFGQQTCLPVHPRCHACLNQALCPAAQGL

BCL11B213-560, sequence (Q9C0K0 213-560): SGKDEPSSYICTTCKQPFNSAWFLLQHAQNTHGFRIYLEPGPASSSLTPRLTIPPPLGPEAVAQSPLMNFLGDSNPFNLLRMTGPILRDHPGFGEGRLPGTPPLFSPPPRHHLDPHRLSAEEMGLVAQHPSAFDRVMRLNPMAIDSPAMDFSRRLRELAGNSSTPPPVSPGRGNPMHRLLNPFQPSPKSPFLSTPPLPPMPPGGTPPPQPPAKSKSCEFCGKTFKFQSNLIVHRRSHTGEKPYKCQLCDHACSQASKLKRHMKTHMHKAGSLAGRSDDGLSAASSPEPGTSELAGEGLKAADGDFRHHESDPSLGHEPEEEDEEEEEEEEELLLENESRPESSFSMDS

B1: thymine glycol 32-mer duplex (dsDNA)
DNA 1: CCGGTGCATGACACTGTTACCTATCCTCAGCG
DNA 2: CGCTGAGGATAGGTAACAGTGTCATGCACCGG
modifications: thymine glycol at position 18 of strand 1 (printed X, written T)
B1: no binding [1]; binds [2].
